Laboratory results published in patent publication US20020076785.
Entries after “also recorded” stand apart in the source; their conditions may differ.

Assays:
[1] = target: recombinant C. elegans Cdc42 (UniProt Q05062)
[2] = target: recombinant C. elegans Rac (UniProt Q03206)
[3] = target: recombinant C. elegans Rho (UniProt Q22038)
Sequence of recombinant C. elegans Rho (Q22038 whole entry): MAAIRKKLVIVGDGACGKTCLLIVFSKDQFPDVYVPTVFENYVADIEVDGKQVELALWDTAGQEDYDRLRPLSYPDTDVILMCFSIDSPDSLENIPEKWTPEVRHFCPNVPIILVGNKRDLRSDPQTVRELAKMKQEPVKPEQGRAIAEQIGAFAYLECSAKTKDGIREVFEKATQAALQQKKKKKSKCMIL

Sequence of recombinant C. elegans Cdc42 (Q05062 whole entry): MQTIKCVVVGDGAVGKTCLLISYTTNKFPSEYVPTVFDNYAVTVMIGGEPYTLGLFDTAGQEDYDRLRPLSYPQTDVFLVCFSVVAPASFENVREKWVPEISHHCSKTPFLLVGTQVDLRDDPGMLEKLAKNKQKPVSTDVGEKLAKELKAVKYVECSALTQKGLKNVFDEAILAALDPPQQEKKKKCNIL

GST-CYK-4-GAP (GST fused to the GAP domain of CYK-4, amino acids 407-681)
GTP hydrolysis [1]: The GAP domain of CYK-4 promotes GTP hydrolysis by all three tested GTPases; also recorded: the CYK-4 GAP domain is more active towards Rac and Cdc42 than towards Rho
GTP hydrolysis [2]: The GAP domain of CYK-4 promotes GTP hydrolysis by all three tested GTPases; also recorded: the CYK-4 GAP domain is more active towards Rac and Cdc42 than towards Rho
GTP hydrolysis [3]: The GAP domain of CYK-4 promotes GTP hydrolysis by all three tested GTPases; also recorded: the CYK-4 GAP domain is more active towards Rac and Cdc42 than towards Rho
